B1: USP39 (parent)
chain: FVEKNPTIVNFPITNVDLREYLSE

Protein stability index data for 95 variants are collected here from the supplement of paper PMC10567573.
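Further: lentivirally expressed fusions sorted by FACS into six bins by GFP to DsRed ratio, PSI derived from sequencing read proportions per bin multiplied by bin number.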

The variants in the data set derive from B1. As to the kind of experiment: protein stability index of a GFP-peptide fusion (GPS, HEK-293T) (PSI 1-6); higher = more stable. Conditions: c terminus: a fixed tail appended.
In the case of FVVKNPTIVNFPITNVDLREYLSE [E3V], the protein stability index is 2.25.

On to FVPKNPTIVNFPITNVDLREYLSE [E3P], for which the protein stability index is 2.41.

In the case of FVWKNPTIVNFPITNVDLREYLSE [E3W], the protein stability index was found to be 1.55.

Consider FVCKNPTIVNFPITNVDLREYLSE [E3C], for which the protein stability index worked out at 1.52.

Turning to FVSKNPTIVNFPITNVDLREYLSE [E3S], the protein stability index is 3.64.

On to FVDKNPTIVNFPITNVDLREYLSE [E3D], for which the protein stability index is 1.95.

With FVTKNPTIVNFPITNVDLREYLSE [E3T], the protein stability index is 1.15.

Regarding FVYKNPTIVNFPITNVDLREYLSE [E3Y], the protein stability index came out at 2.21.

As for FVGKNPTIVNFPITNVDLREYLSE [E3G], the protein stability index was found to be 1.66.

As to FVFKNPTIVNFPITNVDLREYLSE [E3F], the protein stability index worked out at 2.57.

With FVAKNPTIVNFPITNVDLREYLSE [E3A], the protein stability index was determined as 1.49.

Consider FVIKNPTIVNFPITNVDLREYLSE [E3I], for which the protein stability index worked out at 1.85.

On to FVKKNPTIVNFPITNVDLREYLSE [E3K], for which the protein stability index worked out at 1.94.

As to FVRKNPTIVNFPITNVDLREYLSE [E3R], the protein stability index came out at 1.38.

Take FVHKNPTIVNFPITNVDLREYLSE [E3H]: the protein stability index is 1.83.

FVNKNPTIVNFPITNVDLREYLSE [E3N]: the protein stability index is 1.85.

Regarding FVQKNPTIVNFPITNVDLREYLSE [E3Q], the protein stability index came out at 1.58.

As to FVLKNPTIVNFPITNVDLREYLSE [E3L], the protein stability index was found to be 1.27.

Take FVEKNRTIVNFPITNVDLREYLSE [P6R]: the protein stability index came to 2.13.

FVEKNDTIVNFPITNVDLREYLSE [P6D]: the protein stability index worked out at 2.39.

In the case of FVEKNVTIVNFPITNVDLREYLSE [P6V], the protein stability index came to 2.38.

Consider FVEKNLTIVNFPITNVDLREYLSE [P6L], for which the protein stability index stood at 1.19.

With FVEKNCTIVNFPITNVDLREYLSE [P6C], the protein stability index was 2.45.

For FVEKNGTIVNFPITNVDLREYLSE [P6G], the protein stability index came out at 1.95.

Take FVEKNKTIVNFPITNVDLREYLSE [P6K]: the protein stability index was determined as 2.76.

On to FVEKNSTIVNFPITNVDLREYLSE [P6S], for which the protein stability index was determined as 3.

With FVEKNITIVNFPITNVDLREYLSE [P6I], the protein stability index worked out at 2.61.

As to FVEKNNTIVNFPITNVDLREYLSE [P6N], the protein stability index was determined as 2.1.

Consider FVEKNTTIVNFPITNVDLREYLSE [P6T], for which the protein stability index was found to be 2.21.

Consider FVEKNQTIVNFPITNVDLREYLSE [P6Q], for which the protein stability index stood at 1.98.

Regarding FVEKNMTIVNFPITNVDLREYLSE [P6M], the protein stability index came to 2.47.

For FVEKNETIVNFPITNVDLREYLSE [P6E], the protein stability index amounted to 2.21.

Take FVEKNYTIVNFPITNVDLREYLSE [P6Y]: the protein stability index came out at 2.82.

For FVEKNATIVNFPITNVDLREYLSE [P6A], the protein stability index came to 3.96.

Take FVEKNFTIVNFPITNVDLREYLSE [P6F]: the protein stability index came to 2.6.

As for FVEKNHTIVNFPITNVDLREYLSE [P6H], the protein stability index was determined as 1.92.

With FVEKNPTIANFPITNVDLREYLSE [V9A], the protein stability index worked out at 2.66.

For the variant FVEKNPTICNFPITNVDLREYLSE [V9C], the protein stability index amounted to 1.5.

On to FVEKNPTIDNFPITNVDLREYLSE [V9D], for which the protein stability index was found to be 2.27.

In the case of FVEKNPTIENFPITNVDLREYLSE [V9E], the protein stability index was 2.91.

FVEKIPTIVNFPITNVDLREYLSE [N5I]: the protein stability index was determined as 1.58.

FVEKYPTIVNFPITNVDLREYLSE [N5Y]: the protein stability index was 2.83.

For the variant FVEKHPTIVNFPITNVDLREYLSE [N5H], the protein stability index was determined as 1.96.

With FVEKGPTIVNFPITNVDLREYLSE [N5G], the protein stability index stood at 1.51.

For FVEKDPTIVNFPITNVDLREYLSE [N5D], the protein stability index came out at 2.74.

With FVEKCPTIVNFPITNVDLREYLSE [N5C], the protein stability index stood at 1.44.

On to FVEKTPTIVNFPITNVDLREYLSE [N5T], for which the protein stability index is 2.37.

Turning to FVEKMPTIVNFPITNVDLREYLSE [N5M], the protein stability index was determined as 2.15.

Regarding FVEKQPTIVNFPITNVDLREYLSE [N5Q], the protein stability index came to 2.55.

Take FVEKLPTIVNFPITNVDLREYLSE [N5L]: the protein stability index was determined as 2.63.

FVEKRPTIVNFPITNVDLREYLSE [N5R]: the protein stability index came to 1.94.

In the case of FVEKAPTIVNFPITNVDLREYLSE [N5A], the protein stability index came to 1.35.

FVEKVPTIVNFPITNVDLREYLSE [N5V]: the protein stability index was 2.05.

On to FVEKEPTIVNFPITNVDLREYLSE [N5E], for which the protein stability index was determined as 1.91.

Regarding FVEKPPTIVNFPITNVDLREYLSE [N5P], the protein stability index came to 1.67.

As for FVEKKPTIVNFPITNVDLREYLSE [N5K], the protein stability index turned out to be 2.74.

For FVEKSPTIVNFPITNVDLREYLSE [N5S], the protein stability index came out at 2.08.

With FVEFNPTIVNFPITNVDLREYLSE [K4F], the protein stability index came to 1.14.

For FVERNPTIVNFPITNVDLREYLSE [K4R], the protein stability index is 1.9.

Regarding FVEENPTIVNFPITNVDLREYLSE [K4E], the protein stability index was 2.47.

In the case of FVESNPTIVNFPITNVDLREYLSE [K4S], the protein stability index was determined as 2.52.

Consider FVELNPTIVNFPITNVDLREYLSE [K4L], for which the protein stability index stood at 2.45.

As for FVETNPTIVNFPITNVDLREYLSE [K4T], the protein stability index worked out at 2.29.

Consider FVEANPTIVNFPITNVDLREYLSE [K4A], for which the protein stability index was 1.74.

For FVEVNPTIVNFPITNVDLREYLSE [K4V], the protein stability index was 1.81.

For FVEWNPTIVNFPITNVDLREYLSE [K4W], the protein stability index was determined as 1.24.

Consider FVEDNPTIVNFPITNVDLREYLSE [K4D], for which the protein stability index came to 2.85.

In the case of FVEINPTIVNFPITNVDLREYLSE [K4I], the protein stability index was found to be 1.07.

As for FVENNPTIVNFPITNVDLREYLSE [K4N], the protein stability index came out at 2.05.

As for FVEPNPTIVNFPITNVDLREYLSE [K4P], the protein stability index was 1.61.

Take FVEYNPTIVNFPITNVDLREYLSE [K4Y]: the protein stability index was determined as 2.32.

Turning to FVEMNPTIVNFPITNVDLREYLSE [K4M], the protein stability index came out at 1.54.

Regarding FVEHNPTIVNFPITNVDLREYLSE [K4H], the protein stability index was 2.03.

On to FVEGNPTIVNFPITNVDLREYLSE [K4G], for which the protein stability index was determined as 2.11.

Turning to FVEQNPTIVNFPITNVDLREYLSE [K4Q], the protein stability index worked out at 2.61.

Turning to FVECNPTIVNFPITNVDLREYLSE [K4C], the protein stability index was 1.42.

Consider FDEKNPTIVNFPITNVDLREYLSE [V2D], for which the protein stability index stood at 3.79.

Take FGEKNPTIVNFPITNVDLREYLSE [V2G]: the protein stability index amounted to 3.51.

As for FQEKNPTIVNFPITNVDLREYLSE [V2Q], the protein stability index was 2.81.

Consider FREKNPTIVNFPITNVDLREYLSE [V2R], for which the protein stability index worked out at 3.84.

For the variant FPEKNPTIVNFPITNVDLREYLSE [V2P], the protein stability index worked out at 2.96.

Consider FYEKNPTIVNFPITNVDLREYLSE [V2Y], for which the protein stability index was determined as 2.62.

For FSEKNPTIVNFPITNVDLREYLSE [V2S], the protein stability index came out at 3.02.

For FEEKNPTIVNFPITNVDLREYLSE [V2E], the protein stability index is 3.88.

Take FAEKNPTIVNFPITNVDLREYLSE [V2A]: the protein stability index is 2.75.

For FNEKNPTIVNFPITNVDLREYLSE [V2N], the protein stability index was 3.68.

For the variant FLEKNPTIVNFPITNVDLREYLSE [V2L], the protein stability index came to 2.43.

For FMEKNPTIVNFPITNVDLREYLSE [V2M], the protein stability index stood at 3.36.

Regarding FHEKNPTIVNFPITNVDLREYLSE [V2H], the protein stability index is 2.94.

With FCEKNPTIVNFPITNVDLREYLSE [V2C], the protein stability index amounted to 2.94.

With FKEKNPTIVNFPITNVDLREYLSE [V2K], the protein stability index amounted to 3.26.

Regarding FTEKNPTIVNFPITNVDLREYLSE [V2T], the protein stability index came out at 3.2.

With FFEKNPTIVNFPITNVDLREYLSE [V2F], the protein stability index stood at 2.74.

Regarding FWEKNPTIVNFPITNVDLREYLSE [V2W], the protein stability index came out at 2.81.

In the case of FIEKNPTIVNFPITNVDLREYLSE [V2I], the protein stability index worked out at 2.3.
